How the values were obtained:
[1] = Half-life of GLK/IFNα fusion proteins in SD rats; format: in vivo
Excerpt: The structure characteristics and half-life in SD rats of the different GLK/IFNαs, which was constructed by fusion to different GLK, was compared in Table 5.

2′,5′-OAS = assay: Serum 2′,5′-OAS activity in rhesus monkeys after subcutaneous administration; format: in vivo
Protocol: Rhesus monkeys.(n=15; including female and male; age range: 3-4; weight range: 4.2-4.8 kg), were purchased from Animal Center of Chinese Academy of Military Medicine and divided into five groups (3 in each group). Samples were diluted with PBS, wherein rGLK1164/IFNα was diluted respectively to 0.36, 1.0 and 3.6 pmol/kg, IFNα (positive control) was diluted to 0.36 pmol/kg, and rGLK1164 (blank control) was diluted to 0.36 pmol/kg. The diluted samples were administered to rhesus monkeys subcutaneously and the serum samples were collected at 0, 1, 2, 4, 8, 10, 14 […] after injection respectively. The activity of 2′, 5′-OAS in serum was measured with 2′,5′-OAS radioimmunoassay kit (Eiken Chemical Co., Tokyo, Japan).

erythropoiesis = assay: Erythropoiesis in normal mice, hemoglobin (Hb) content; format: in vivo, BALB/c mice; conditions: weekly subcutaneous administration
Protocol: rEPO/GLK1074 fusion protein was compared with standard rEPO (EPOGEN®, AMGEN Inc.) in erythropoiesis activity in mice. BALB/c mice (male, 6-8 weeks old, 18˜20 g/only) from the Shanghai Institute of animal testing center were used in the experiments. Grouping, injection, and tail vein blood samples collecting were performed according to the following table. Hemoglobin (Hb) content was determined by colorimetric.

GLK302/IFNα: IFNα fused with GLK302, a repeated sequence of GGSGGS (SEQ ID NO: 16)
Half-life [1]: 14.4 h

IFNα [reference compound]
detectability in vivo (2′,5′-OAS): could hardly be detected 6 days later

rEPO: standard rEPO (EPOGEN®, AMGEN Inc.) [reference compound]
erythropoiesis activity, Hb levels (erythropoiesis): significantly lower than rEPO/GLK1074

From patent US9051358B2, “Nonnatural collagen-like protein and use thereof” (ZHEJIANG UNIVERSITY, priority 2009, dated 2015)
